Laboratory results taken from the supplement of paper PMC12042874.
± gives the uncertainty stated by the source.

Assay: amyloid nucleation score (Sup35N fusion, yeast selection) (log enrichment); library NNK1; higher = more nucleation; inactive = no reads after selection
How it was run: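 DiMSum was used to calculate nucleation scores as log enrichment of output over input reads, centred on the mode score of non-aggregating sequences. Sequences with fewer than 100 input reads were not scored. Input and output came from Illumina sequencing of plasmid inserts in psi-negative yeast expressing peptides of 20 random codons fused to Sup35N, induced 24 hours with 100 μM copper sulfate and then grown 7 days at 30°C on medium lacking adenine and uracil.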

Substance | amyloid nucleation score
VCKFNYL | -0.769 ± 1.1
VCKMSTLVDDWRGSARPHRL | 0.782 ± 0.37
VCLVFVFDVSTVPNICCYAT | -0.189 ± 0.37
VCMLVHLVTFAPNS | 2.61 ± 0.26
VCRPYVRLSPGGM | -1.27 ± 2.7
VCWYWVGILRMMICACTSPS | 0.362 ± 0.43
VDEETMCSFLSLGKVY | 0.474 ± 0.69
VDGMGYDLIMCLYYNGLWAN | 0.515 ± 0.54
VDKKRAISCKSFRLYGRFSL | -0.647 ± 0.32
VDKYIIFIEIYIADSCDTLG | 0.374 ± 0.54
VDLLNGDWNRSLMKAKPVER | 0.17 ± 0.29
VDLTLPASAVGNELCAREVG | 0.155 ± 0.34
VDMNAEKTSSDERLWERRRT | 0.606 ± 0.65
VDRGCKYKQLMREVVSEHVI | 0.753 ± 0.63
VDSSRRDVCDGDT | 0.104 ± 0.48
VEAESFARCDRHVHRQTIGG | 0.369 ± 0.54
VEAMLTEPWRWH | -0.522 ± 1.7
VEFFFDF | -0.417 ± 0.77
VEIYWWGYPPKNSI | -0.239 ± 0.39
VELGRLIPPEHETQDLRSGW | 0.258 ± 0.46
VEQLFGLAMRDLA | -0.448 ± 0.8
VESLDKIPMR | 0.173 ± 0.73
VESVSWVCDRCTGLVLVWSG | inactive
VETRRWFHRL | -0.177 ± 1.4
VEVKSCIWDFGCNQRGYGDG | 5.32 ± 0.079

Substance | amyloid nucleation score
VFCLRLAYNAFREMSAHKC | 3.31 ± 0.18
VFFKKAIIFRSKV | 0.318 ± 0.33
VFGVGGTYLFIDVEAVWGSG | 1.61 ± 0.57
VFKGQMVVPPIYVYLVSWMG | -1.06 ± 1.7
VFLFNTAYESKNPMSKLKVC | -1.24 ± 0.5
VFLIDLLLTMCFFLYGAFLV | 0.76 ± 1.1
VFRDVHD | 0.417 ± 0.42
VFRTISYRV | 0.039 ± 0.69
VFSFLPSYGHKCTAKQFFSA | -0.3 ± 1.4
VFYFELKG | -0.183 ± 0.28
VFYFYYFDEMCVSSMNRLKL | -0.36 ± 0.27
VFYGCVDESCDLNRLGSVSY | -0.101 ± 0.54
VGELFCGWSRRERYPVWSLV | 0.255 ± 1.4
VGFGPVWTRPYNTWYNYGKS | 0.514 ± 0.66
VGIEFLYLPFVSSRWVVTKW | 0.277 ± 1.4
VGISCPYYLGRGIMVEARSD | -0.006 ± 0.62
VGIWIGVDMGIGWGRDSVYV | 0.125 ± 0.53
VGMSSDCAGSLRRWRLWARL | 4.55 ± 0.1
VGNEWSVLRLGGGVGSIFL | -1.07 ± 1.3
VGNNKLFKTPMKDRELMICL | -0.184 ± 0.48
VGNRCGVL | 0.05 ± 0.33
VGPIFLHTLRRSVN | -0.532 ± 0.83
VGSQKCLYCGVAYSEGVWIY | inactive
VGVMFG | -0.06 ± 0.69
VGVSAVSTNSSVSKIFGTSW | 0.746 ± 0.85

Substance | amyloid nucleation score
VHCHMEITSWLGRRS | 2.8 ± 0.12
VHDVWEGFICGLPKYRGRLM | 0.026 ± 0.75
VHIPHDCISAIVFRSSAAIS | -0.331 ± 0.49
VHNHISP | -0.836 ± 0.37
VHSCYLVLARQWNVIKISHI | 0.039 ± 0.43
VHTGLVSEIRRDKREGAYPE | 0.128 ± 0.99
VHTVYLLVDTR | 0.289 ± 1.2
VHVLWLWQSMLLVHWSAV | 1.29 ± 0.93
VIESG | 1.34 ± 0.93
VIFSGVTRFHSRTCLRFVMI | -0.09 ± 0.79
VIKSRP | 0.639 ± 0.42
VILFNSNTEYQKLEQLLELW | 0.153 ± 0.23
VILSYRLSEWGSSGDGDGRR | -0.562 ± 0.8
VIMCVSRCTVRCV | 0.486 ± 0.52
VIRFSGVLCMIDL | 5.09 ± 0.071
VISIFVEF | 3.69 ± 0.12
VITVSGSEGEIEWSS | -1.64 ± 2.7
VKHCQFR | 1.69 ± 0.73
VKIHASEVYFPMQSTYLMVD | 0.086 ± 0.72
VKPLLIHIRALLEM | 1.55 ± 0.52
VKVGVCGSVGWLHTGVQSNG | 0.804 ± 0.3
VLANDVVPNSIYKKVSITYC | 0.884 ± 0.7
VLATGVCACTGVYTFMTWWV | -0.455 ± 0.47
VLCVFCGNLHMIVLDCAFDA | 8.589 ± 0.051
VLESIQGCYFLGASWIAEFR | 0.409 ± 0.48

Substance | amyloid nucleation score
VLFLDI | 0.793 ± 0.58
VLFYQF | -0.382 ± 0.69
VLGMCGTRYIDFF | 3.12 ± 0.085
VLGSVIGFLWNP | 2.23 ± 0.088
VLGYSRPLSDTSSVGTIIPA | 0.172 ± 0.38
VLKCFSLEVVTWDSACLAGL | 0.252 ± 1.1
VLKCRERRFRIHGHWTRRGP | -0.63 ± 0.47
VLLCNFRSRVWRYRCFKAFS | 0.93 ± 0.19
VLLTR | 0.505 ± 0.36
VLLWVGLTYATGLGRRSSLF | -1.3 ± 0.97
VLMLRSGWPQRRPHFG | -0.301 ± 0.76
VLMQVSTLAAWDSKRDMTSC | 0.528 ± 0.35
VLMVPWVDGSCSS | -1.06 ± 1.3
VLPCSGQA | 0.79 ± 0.26
VLTNESRGYTIRLGSYSRFV | 2.4 ± 0.49
VLTTGTYFATVYIK | inactive
VLTVAGF | -0.561 ± 0.44
VLVVTALLSRV | 1.67 ± 0.22
VMKDTQLLCNFRVSRVLMFE | inactive
VMLVVMGLFELFWLSNVV | inactive
VMVWLGDREAGLCESELGAG | 0.12 ± 0.45
VMWSVDFWYPAMSGVIPDQF | 1.45 ± 0.65
VNAIYDSWLSL | inactive
VNLFLVMKFK | 6.676 ± 0.043
VNLRKEPDNRGLGLDFRLN | 0.001 ± 0.78

Substance | amyloid nucleation score
VNRALAFNCWSALILGNAVV | -0.608 ± 0.31
VNRYFVFVSVMIYMLCESRF | 0.295 ± 0.75
VNSNPSSGAFWI | 0.571 ± 0.87
VNVIWAFYNN | 5.7 ± 0.072
VNVSVDFKREMRIPWLAGIC | -0.651 ± 0.67
VNVTCMFWD | 4.05 ± 0.058
VNYISHTQMKTR | 0.913 ± 0.41
VNYPEDPTSKEIIRHSLGTG | -1.13 ± 2.4
VPAVSCMVFTAQFDSGVYSC | -0.03 ± 0.73
VPFLYVG | -0.792 ± 0.62
VPFSGSDNGGTYDCLDWNEG | -0.299 ± 0.63
VPIFVNKFVDYTSLSCMHCL | 7.379 ± 0.06
VPIVGDLEKVMGCYSYWANK | -0.011 ± 0.18
VPSFITYLVVDLWDALQGYH | 0.409 ± 0.42
VPVGRWRSWICVRIRL | 0.831 ± 0.65
VPVWFSTSISQWSNLQ | -1.09 ± 2.4
VPWFLHELQTVLAKVNRGQR | -0.165 ± 0.33
VQEFYDLKEYWS | -0.265 ± 0.35
VQFGQIIEWVFHMLVSTTTI | -0.022 ± 0.36
VQKKRLDGLVKRGLYIRAIG | 1.2 ± 0.69
VQNGGSLTMPRALLANTWMS | -0.671 ± 0.42
VRAELVTVGCLRRATYYRPK | -0.319 ± 1.2
VRAEVGQDRVGRM | 0.09 ± 0.44
VRAFGYDGLHLVITCYHCRH | 0.726 ± 0.77
VRCNC | 0.261 ± 0.5

Substance | amyloid nucleation score
VRDSVTLFPK | -0.277 ± 0.77
VRFIFSRSIGLQ | -0.361 ± 0.42
VRFWTLEFSPVRFSS | -1.11 ± 0.86
VRGLWFYN | 0.088 ± 0.72
VRGVARYNRKFGDCFYPTHG | 0.065 ± 1.5
VRLIRTPSDIGTYIIGCREG | -0.065 ± 0.38
VRLKVKCIMIH | 0.962 ± 0.72
VRLLTFDITSLFRVFYVKHR | 0.103 ± 0.67
VRLSFPKRLSISSAVCNRGS | 0.279 ± 0.62
VRMKIGNFSCCRYWKPPLYT | 1.29 ± 0.61
VRMSFRLVEPY | -0.301 ± 0.81
VRNMVFSSGRQLYMWDKLLK | 1.82 ± 0.66
VRQNNGQMFFYWSWFIGNNP | 8.12 ± 0.063
VRSDAVKEARISFCLRSKRF | 0.423 ± 1.4
VRSFDDLRVNVSRSRCAMAQ | -0.906 ± 0.71
VRSFLPMYMF | -0.376 ± 1.7
VRSGDCYRSNSKSVFVMAIR | 0.617 ± 0.49
VRSRLLQNLSDIPNQPIRWD | -0.105 ± 0.33
VSAVDMMYHLLHRILGIIAC | 1.48 ± 0.55
VSCCSNLVY | 0.144 ± 0.26
VSCIV | 0.198 ± 0.58
VSFSCLMSPE | 0.126 ± 0.32
VSFYGGFGKK | -0.116 ± 0.64
VSITRVGTFIRYLFCIARCW | -0.866 ± 0.9
VSKSFVSQARLFYIQGDHCL | 1.42 ± 0.73

Substance | amyloid nucleation score
VSMHYYAGTYSLNNSLV | -0.819 ± 1.1
VSNSWAWPFRRNCGSECWFT | 0.228 ± 0.33
VSRTLAWLGMSRLNGSYGVC | -0.197 ± 0.41
VSRWHQCADPPRCGHRCIWA | 0.299 ± 0.51
VSSGHLA | 0.032 ± 0.42
VSSRITPS | 1.11 ± 0.39
VSSVGKMPDALRVKAKWIFM | 0.141 ± 0.29
VSSVGVDMMYLTTRGGCHSI | inactive
VSVGVILCSVRNKVNRGMDD | inactive
VSVMFYPFVFHWYGCLLTSA | 2.96 ± 0.12
VSVNTVFH | 0.36 ± 0.44
VSVTVLGRWR | 3.55 ± 0.19
VSWYSSVIKL | inactive
VTGHV | -0.019 ± 0.49
VTGKTLTLIEFFIHSQPLSR | 0.217 ± 0.32
VTIAHNGNLSCRLYTYVQVR | 0.515 ± 0.57
VTLKVFCIVEV | 0.314 ± 0.44
VTMLRSFMHELHSGLKKDLK | 2.06 ± 0.11
VTMVGRSLKLLMTYETFNTW | -0.21 ± 0.24
VTNFNESLGKFSRNTLLRS | -0.713 ± 1.1
VTNVSLDCGALCSCELCKKS | 7.155 ± 0.063
VTRDMCGYLVCFWQYAG | 7.728 ± 0.045
VTRFSAGTITVLTRDWRANC | -0.486 ± 1.6
VTRTSYWGVFWSHSWRTWM | inactive
